The data set is described as follows: label from the status in PepcDB records.
Take “MSDSLHTPEEPRPGPGEQLAHAHDGSLRHTRAKGEPRFPDGPKADPAGSHFERRIRSFQPRRSRVTAGQADALQRLWPKWGLDIDGHALDLTELFGNTHPVVLEIGFGMGEATARMAAEDPDTGILAVDVHTPGQGNLLNLADQHGLTNIRVANGDAIILLREMLPPDSLDGLRVYFPDPWPKKRHHKRRLIQPEFLTLAATRLRPGALVHCATDWEPYAEQMLDVLTAHPDFENTQPTGGYAPRPGFRPLTRFEGQGLDKGHVVNDLLFRRVQPRDQHRDLPPSATEAD”: the protein production result is listed as “failed”.

For the sequence “MSDSWTERWNDRYSNEIFAYGEKPNNYLKAQLENLQPGTILFAAEGEGRNAVFAACLGWDVQAFDISSEGKKKAFQLAEKNQVTIAYQVGQLETLGYTAGQFDALALIYAHFPATVKSAYHRILSSYVRSGGYIIFEAFSKKHLDYLAKNEQVGGPKEFDMLFSIEEIKADFPDYEILELEEKEIELNEGQFHNGTGSVIRFTGRKKLEHHHHHH”, the protein production result is given as “failed”. “MSDTPYSLKGPARPTASTRNGKGRQDARWAERRREAAIAKLKAELAAQAALIAGQEVALAHSRKIFDRASVAARIGVWECSLPGEQLHWTDVVYDLFDLPRGAALDRSEIIKCYPAESRKALDSLRSRAIAERSGFTLDAEITTFAGHSRWIRITATVECEADVPVRIFGMKQDITEEKILSDRMRYLAEFDPMTGLANRARFQARLAQPDASRPLGALLLIDLDGFKAVNDTFGHVVGDECLKAAAERLAEGCGEADLVARVGGDEFAVLLGSHLDRAAVSGVAREIIEGMGKPVVVRGQSLRLGASVGIAFAGQGAPCDLFAQADTALYAAKAAGRNTFRIFKAEAGGKDRSAAA”: the protein production entry was “failed”. The same measure for “MSDWPPKPQNEVQNSNNKTGQEWQILEKAVLASVEEQRRTRRWGIFFKFLTFLYLLFVFVLLGRGCTTSESSGGTSSSTAHLAVVNIIGTIDSSNQSVNSEDTNKALERAFEAKNSKAVALNINSPGGSPVQSDEIWQEIRYLKKQHPDKKVYAVIGDMGASGAYYIASAADEIIVNPSSLVGSIGVIMPNYGITGLAQKLGIEDRTLTSGSNKDILSMTKPVNPAQREHIQSVLDNVHAHFINAVKEGRGTRLKSNDPAIFSGLFWTGEQAIQLGVADRTGNLDTLMRELKVENKVNYTIERSPFESILGKMGSELGQGISQSVSQQLKTEQQAKLQ”: “failed”. Take “MSDWQMAEAWTLEEAIANIQQTEDTGKRYYAAWWFGKFRVQDERAVNALLAALKDETDRSPDGGYPLRRNAAKALGKLGNLAAVQPLIESLESPDYYVRESAAQSLEMLGDRQAIPALQALLAGGVAAAVKAEGKPHLVQPYEAVIEALGTIGATAAIAEIEPFLDHEFAKIRYAALRALYQLTQEAHYAEQLMEALNGNQLQLRRSALLDLGAIGYVPAGQAIAKAYAENSLKLISLKGILESHLQRTAETLDADGLQLLELMDSLL”: the protein production entry is given as “failed”. For “MSEDKDMKNRNAMTIKRFVDVEEDGEHGGSGEFAELFQESIKQHRVGEVVTGKVVHISNEFVLVDIGYKSEGCIAIDEFLDEDGNLTVKVGDEVKALFERKENQKGYAVLSRRKAERLAVWDVIDEAGGEGGIIEGKITGKVKGGLTVDIGVQAFLPASQVDLRPGGNLDKYIGTTDRFKVLKLNKKRGNIVLSRRVLMEEERESSRKETLATLAEGQVREGVVKNITDYGAFVDIGGVDGLLHVTDMSWGRLGHPSEILKPGDKLNVKVLKYDQEKGKISLGLKQVTPDPWVSVEQKYNQGDRVKGKVVSLTDYGAFIALEDGVEGLVHVSEMSWTRRLRHPSEILTVGDEVETVVLGVDMGNRRISLGLKQVQVNPWTQLEEKYPVGTKLEGQIKSITDFGVFIGIEEGIDGLVHVSDISWTKRIKHPGEVFTKGQTVQAVVLNIDPENERLSLGIKQLLLDPWSEIPVKYRPGTRVHGKVTSVTDFGVFLEIEEGIEGLIHVSELSREKVASPKEFTNVGDELDAVVLSVDESEKKIALSIKSLQMAAEKAEIESYMQAQGEATSNLGELLKVGFRKNGDGNDLEHHHHHH”, the protein production result was “failed”. The same measure for “MSEENKIGTYQFVAEPFHVDFNGRLTMGVLGNHLLNCAGFHASDRGFGIATLNEDNYTWVLSRLAIELDEMPYQYEKFSVQTWVENVYRLFTDRNFAVIDKDGKKIGYARSVWAMINLNTRKPADLLALHGGSIVDYICDEPCPIEKPSRIKVTSNQPVATLTAKYSDIDINGHVNSIRYIEHILDLFPIELYQTKRIRRFEMAYVAESYFGDELSFFCDEVSENEFHVEVKKNGSEVVCRSKVIFE”: “not failed”; for “MSEENRAVVSRMTEEDVRQLIKRKDDIEEQIKAYYDMLESQAGVGMDGPLVDVEGFPRADVDLYKVRTARHSISCLQNDHKAIMVEIEEALHKLHATARVTHEQDDTQMESSGQTVETPPPFALVDAVTHGSPAAQAGLHVGDQIMEFGSVNTQNFRNLRDIASVVQHSEGKSLRVGVFRNGQEVHLNLTPQQWSGRGLLGCNIVPLHR”: “failed”. The same measure for “MSEIEELVCIEASVTRKSTSNTVEIRESRRNKVTLGSSDSPAFPTPHLFLKNIVSFDEQSMYNLLYPRLQDPNLCSILSFKIAFEAKRVPGPLYISYDVTLTPQIFEEPDMETCGLCLLEEQHLFDMPNCAHVFHGDCIDKWLSTSNNCPLCGVEIMDDDE”: “failed”; for “MSEIILVTGAAGQLGQRVIHHLIETYKVAPGNIVAATRSPEKLSELEKKGVVTRKADFDDAAGLEKAFAGVDRLLIISTDALDTPGKRLAQHKGAVAAAVKSGVKHIAYTSMPGPDNSLVTFAPDHLGSENAIKASGIAHTIIRDAWYHDNYLHGMPHNLQGGKWYSATGDGKISTISRDDCALAIAAALASGTSESATYTVTGTQSLNSRQIAAIVSDVAGKPLEVIDVTDEQLGQGMRGAGLPGFVADMLVSADANTRAGKFDIVTEDFTKLTGKQPQPLKDFFVEHKATLTA”: “failed”; for “MSEILRQPSVLLFLTLAVYALAIIVRTRTGNIFCNPVLVSTIVLIAYLKILGIDYAVYHNAAQFIDFRLKPAVVVLAVPLYQNRRKIFNQWLPVIVSQLAGSVTGIVTGMYFAKWLGAEREVVLPLASKSVTNPIAIEITRSIGGIPAITAATVIIAGLVGQIAGYKMLKNTVVMPSSVGMSLGTASHAMGIAASLERSRRMAAYAGMGLTFNGVLTALIAPLLIPVLGF”: “failed”.

Regarding “MSEKDFVQVAKLGKTVGLKGYVKLHNLSDFSSQFKKDATFFIKNTKEMLKIKHYNANNSTVLFENYEDIEKAKELTNLILFQSIEKSRQTCKLKKDEFFYFDILECEVFEEDKRLGKVVDILETGASYLFEIQSDEKWVEKKYPKIFFIPYLDKFVKNIDIEKRQIFCTQDAFLILENSLEHHHHHH”, the protein production result is “not failed”.

As to “MSELILVRHGQATPFEKATDRLSALGEQQARAVGAALTAQGVRPTHVLHGSLVRQRRTAELAGEGQTGNEPGWPAPTLDPRLSEFDGDGLVTTLAPLLAQQDAEFGTLATTFREHRDSPERNRHFQRMLEALAAAWQAGTVTHPEVEGWADFRARVRAGLGDVLRLPAGTTAVLFTSGGVIGLAVALALDAPDASALKLNWRVKNGSLTRFTFGGGRLSLDSFNEEGHLTPELRSWR”, the protein production result is “failed”.

With “MSELPPREQPPRDQAISVAAISPERPDNHENDWTRRLVLFLRVMAVLSVAKGLYHWAQITGFVGGEDDAFEVQTMAWQTATIYFAVIELVAAVGLWLATPWGAVVWLTTVVSMAVIELMFPAIYGGSLLVVLGEALLLAAYLALAWMAARERPP”, the protein production result is listed as “failed”. The value for “MSELRILRAVDYPRMPWKNGAGSTEEIARDGGDGLDGFGWRLSIADVGESGGFSGFAGYQRIISVLEGGGMRLRVDGAESAPLRARQAFAFSGDSEVHCTLLDGAIRDFNLIYAPRRHRARLQWLRVEGELDWHGTASTLLLFAQQDGVAISLQGQPRGQLAAHDCLCAEGLQGLQHWRLTAHEPAWVCAVELDSL” was “not failed”. On to “MSELVINNNIVNDLLIKQFTNYVFMMIVTDIKGNIIYANKKYCQFNHINFESIKNKRYNLFYLVDENQDVFSNISDNKEVIRLEAKNPNKNKQEVWEDINIVPIFDKNNLISHYAFLSLDITD”, for which the protein production entry is reported as “failed”. As to “MSEPKKHKDAAVDDRAVQPSRRNFLKFGASGIAAATLSTWIPSDGMLQAAPVAPVLPVVEDRDAPAAGEHRIQLKVNGQVHTLNVPANAVLLDVLRDRLQLTGTKKGCDHGQCGACTLLVNGVAINSCLSIAVQHQGDSITTIEGLAENGKLHPVQEAFWEHDAYQCGYCTSGQIMSAVAILKDPNLGSDDASVREAMSGNICRCGAYKNILSAVQSARSKMGAV”, the protein production entry is “failed”. In the case of “MSEQNWTDTGRFDNKAAEWDANAIRAALADAVARAIIAHMPVGKPANALEFGCGTGLVTTRIAPHCLQLTAVDSSREMLRMLGEKIAASAIANVTPLHLDFSRPEEAAGLDRDYDFVYSSMTLHHIPDTASFLRELIGHMSPGGALAIADLDAEDGLFHNDATEKVHHGFDRTELQALLESAGFAGVSFMTAHIIEKKNREGNLKNYPVFLVTAVKPKA”, the protein production result is on record as “failed”.

Turning to “MSESAKVWLVTGASSGFGRAIAEAAVAAGDTVIGTARRTEALDDLVAAYPDRAEAISLDVTDGERIDVVAADVLARYGRVDVLVNNAGRTQVGAFEETTERELRDLFELHVFGPARLTRALLPQMRERGSGSVVNISSFGGQLSFAGFSAYSATKAALEQLSEGLADEVAPFGIKVLIVEPGAFRTNLFGKGAAYFSEENPAYAEKVGPTRQLVQGSDGSQPGDPAKAAAAIRLALDAEKTPLRLALGGDAVDFLTGHLDSVRAELTEWEKVSRGTDFDTE”, the protein production result was “not failed”. The value for “MSESIVTKIISIVQERQNMDDGAPVKTRDIADAAGLSIYQVRLYLEQLHDVGVLEKVNAGKGVPGLWRLLLEHHHHHH” was “not failed”.

With “MSESVNKKITDGNYDKTLAVKCVNGTFVGKKTEGVIAYKGIPFVGQQPVGKLRWKAPVDVTPSNDVYEAYNYEKAPVQAPGDPAIENGMGEDCLYLNIWRADETVTEKKPVIVWIYGGGFEVGGTSDPQYDCHSLVKENPDVILVSLAYRVSFFGFMHLSHLSDGKDYQDAPNLGLLDQLMGLKWVHENIANFGGDPDNVTIWGESAGGASVTLLPLIKGSHQYFKRVIAQSGAPAQTRSEEQAIAITDHVMKELGCKTVADLLKVSAQEFADTWARLYGFYQVLGIRTFPERDGRCLPLNPWEAYANGAAKDITFLQGCNKDEMNTFLGSIGVDRWNAWANQRKAEKLIQLTDEEKALVESYCNDIQGESYEPTVRLFSQIMFQVPQIRLSEEQTKGGGKSYTYLFTPESSVPLIKCGHITELSALFNHPEITAFTGRAYDETFCKTMRKMWIQFAKTGNPSLTAEMSPDGKAKEWPLYDTEKKVMVLDEQNIHPAKESELKIVDWERTYFLTNYYMP”, the protein production result is recorded as “failed”.

On to “MSFALGQRWISDTESDLGLGTVVALDARTVTLMFAASEENRVYARSDAPVTRVIFNVGDVVDSQQGWSLQVEQVVEDQGVYTYLGTRVDTEESGVALREIFLSNQIRFNKPQDKLFAGQIDRMDNFVLRY”, for which the protein production result was “not failed”.

For the origin of these results see a protein production outcome set (Wang et al. 2014).
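Further: failed if final PepcDB status was selected cloned or expressed and not failed if soluble or beyond.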
